Substrate in the data set: OCCCCCO
Briefly: Reactions of horse liver ADH1E with 1,5-pentanediol and 5-hydroxypentanal. Type of data set: biochemical. The note with it: pH 7.0; 25.0 °C.

In general, Km refers to the concentration of substrate that gives half-maximal velocity.

B1: horse liver ADH1E (Equus caballus) (protein)
chain: STAGKVIKCKAAVLWEEKKPFSIEEVEVAPPKAHEVRIKMVATGICRSDDHVVSGTLVTPLPVIAGHEAAGIVESIGEGVTTVRPGDKVIPLFTPQCGKCRVCKHPEGNFCLKNDLSMPRGTMQDGTSRFTCRGKPIHHFLGTSTFSQYTVVDEISVAKIDAASPLEKVCLIGCGFSTGYGSAVKVAKVTQGSTCAVFGLGGVGLSVIMGCKAAGAARIIGVDINKDKFAKAKEVGATECVNPQDYKKPIQEVLTEMSNGGVDFSFEVIGRLDTMVTALSCCQEAYGVSVIVGVPPDSQNLSMNPMLLLSGRTWKGAIFGGFKSKDSVPKLVADFMAKKFALDPLITHVLPFEKINEGFDLLRSGESIRTILTF
For B1, the Km is reported as 21 mM.

These data come from publication PMC4414724.
